The target of this assay is Mycobacteria modified Low Density Lipoprotein (MtLDL) (human) (UniProt P04114). Nature of the assay: sandwich ELISA, value told of the pair No. 6 with No. 8. On the technique in general: An ELISA detects its analyte on a solid surface through an enzyme-linked reagent.

B1: bivalent Fab No. 8 (HCVR SEQ ID NO: 5 / LCVR SEQ ID NO: 6) (Fab, V domains shown)
VH: QVQLVQSGAEVKKPGSSVKVSCKASGGTFSGYYISWVRQAPGQGLEWMGGIIPISGRANYAQKFQGRVTITADESTSTAYMELSSLRSEDTAVYYCARSRSYYHFDLWGQGTLVTVSS
VL: DIALTQPASVSGSPGQSITISCTGTSSDVGRYNSVSWYQQHPGKAPKLMIYRVSKRPSGVSNRFSGSKSGNTASLTISGLQAEDEADYYCQSWASLSNVVFGGGTKLTVLG
As for B1, the specific signal, fold above native LDL background was more than 4 fold.

B2: bivalent Fab No. 6 (HCVR SEQ ID NO: 3 / LCVR SEQ ID NO: 4) (Fab, V domains shown)
VH: EVQLLESGGGLVQPGGSLRLSCAASGFTFRGYYMSWVRQAPGKGLEWVSSISGFSSNTYYADSVKGRFTISRDNSKNTLYLQMNSLRAEDTAVYYCARVRYLAYAFDYWGQGTLVTVSS
VL: DIELTQPPSVSVSPGQTASITCSGDSLPDKRAYWYQQKPGQAPVLVIYGDSHRPSGIPERFSGSNSGNTATLTISGTQAEDEADYYCSSWGSRTWVFGGGTKLTVLG
B2 displayed a specific signal, fold above native LDL background of more than 4 fold.

These data come from patent US20190391146A1.
